# Assay results from PMC12210968.
# Target: Human plasminogen (PLG) protein (human) (UniProt P00747)
# Assay: SPR; BIAcore system; PLG and EV-A71 6356 viral particles; the methods tell one set-up (PLG coated, virus diluted) for EnSpire or BIAcore
substance,measurement,value
"Enterovirus A71 (EV-A71) viral particles, strain 6356 (human strain, C2 genotype) (complex)",Kd,1.96 nM
same,koff,5.63e-05 s⁻¹
same,kon,28800 M⁻¹ s⁻¹
